{
  "source": "patent US20090186811A1",
  "about": "“Y2 Selective Receptor Agonists for Therapeutic Interventions” (priority 2004, published 2009)",
  "binders": {"B1": {"name": "[Cys2, Aoc5-24, D-Cys27]PYY (peptide)", "chain": "YCIK[Aoc′]RH[dC]LNLVTRQRY", "modifications": "cysteine pairing not given here; reading uncertain"}},
  "key": {"[1]": {"biological_target": "T1, human Y1 receptor (human), P25929", "T1 chain": "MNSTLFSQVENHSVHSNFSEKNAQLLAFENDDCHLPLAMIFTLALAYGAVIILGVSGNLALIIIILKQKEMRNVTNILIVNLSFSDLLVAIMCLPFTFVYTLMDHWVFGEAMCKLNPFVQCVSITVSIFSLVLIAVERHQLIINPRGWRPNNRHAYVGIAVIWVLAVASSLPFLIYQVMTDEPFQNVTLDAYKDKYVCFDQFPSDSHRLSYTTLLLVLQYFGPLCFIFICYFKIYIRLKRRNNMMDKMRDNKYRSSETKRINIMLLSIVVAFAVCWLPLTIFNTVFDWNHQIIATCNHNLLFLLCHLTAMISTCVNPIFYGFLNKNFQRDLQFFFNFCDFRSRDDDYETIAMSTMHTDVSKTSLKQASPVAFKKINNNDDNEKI", "assay": "cell-based or functional assay"}, "[2]": {"biological_target": "T2, human Y2 receptor (human), P49146", "T2 chain": "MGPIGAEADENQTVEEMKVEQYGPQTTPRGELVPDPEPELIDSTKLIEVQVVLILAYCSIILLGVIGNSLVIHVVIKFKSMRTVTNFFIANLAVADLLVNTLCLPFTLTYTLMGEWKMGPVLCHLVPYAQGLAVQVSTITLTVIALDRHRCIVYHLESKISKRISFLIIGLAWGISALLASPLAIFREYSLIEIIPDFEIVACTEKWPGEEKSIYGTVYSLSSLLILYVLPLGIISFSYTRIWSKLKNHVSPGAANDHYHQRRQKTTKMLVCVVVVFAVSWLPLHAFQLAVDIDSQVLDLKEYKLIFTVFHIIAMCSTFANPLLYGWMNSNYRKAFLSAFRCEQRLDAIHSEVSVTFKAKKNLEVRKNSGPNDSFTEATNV", "assay": "cell-based or functional assay"}, "[3]": {"biological_target": "human Y4 receptor (human), P50391", "sequence (P50391 whole entry)": "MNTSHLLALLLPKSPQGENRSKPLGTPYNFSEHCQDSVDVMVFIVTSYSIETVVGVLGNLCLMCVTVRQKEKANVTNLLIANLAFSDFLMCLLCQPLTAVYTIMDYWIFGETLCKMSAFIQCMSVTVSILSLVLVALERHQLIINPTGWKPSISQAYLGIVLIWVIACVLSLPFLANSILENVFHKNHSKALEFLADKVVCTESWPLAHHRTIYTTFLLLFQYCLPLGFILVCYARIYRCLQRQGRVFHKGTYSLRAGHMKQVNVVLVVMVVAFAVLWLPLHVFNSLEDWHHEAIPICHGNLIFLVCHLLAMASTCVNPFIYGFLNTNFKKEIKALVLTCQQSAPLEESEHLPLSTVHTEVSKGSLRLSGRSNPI", "assay": "cell-based or functional assay"}, "[4]": {"biological_target": "T3, human Y5 receptor (human), Q15761", "T3 chain": "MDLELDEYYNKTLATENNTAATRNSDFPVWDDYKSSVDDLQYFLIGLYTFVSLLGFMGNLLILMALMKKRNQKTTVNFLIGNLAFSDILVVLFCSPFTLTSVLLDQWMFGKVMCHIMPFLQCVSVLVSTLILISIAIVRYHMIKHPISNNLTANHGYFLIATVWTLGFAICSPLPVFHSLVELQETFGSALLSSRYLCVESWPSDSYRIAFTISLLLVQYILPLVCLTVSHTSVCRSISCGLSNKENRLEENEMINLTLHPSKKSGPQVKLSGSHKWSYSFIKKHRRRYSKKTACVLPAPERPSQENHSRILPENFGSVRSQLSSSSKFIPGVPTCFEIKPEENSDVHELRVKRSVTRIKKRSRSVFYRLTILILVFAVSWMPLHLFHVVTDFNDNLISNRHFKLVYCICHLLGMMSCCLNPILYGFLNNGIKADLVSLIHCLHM", "assay": "cell-based or functional assay"}, "[5]": {"biological_target": "human Y4 receptor (human), P50391", "assay": "competition binding, 125I-PP displaced, COS-7 cells with human Y4"}, "[6]": {"biological_target": "T2, human Y2 receptor (human), P49146", "assay": "competition binding, 125I-PYY displaced, COS-7 cells with human Y2"}},
  "note": "Non-standard residues stand in square brackets, D forms with d. Primed or numbered codes have the meaning given here. No end group written: not given here. Aoc′ = not defined here",
  "data": [
    {"binder": "B1", "values": [
      {"measurement": "EC50 (inositol phosphate turnover)", "setting": "[1]", "value": "> 1000", "unit": "nM"},
      {"measurement": "EC50 (inositol phosphate turnover)", "setting": "[2]", "value": 3.7, "unit": "nM"},
      {"measurement": "EC50 (inositol phosphate turnover)", "setting": "[3]", "value": "> 1000", "unit": "nM"},
      {"measurement": "EC50 (inositol phosphate turnover)", "setting": "[4]", "value": "> 1000", "unit": "nM"},
      {"measurement": "IC50", "setting": "[5]", "value": 267, "unit": "nM"},
      {"measurement": "IC50", "setting": "[6]", "value": 0.87, "unit": "nM"}
    ]}
  ]
}
